Measured values: paper PMC7367873, “Dissecting the sequence determinants for dephosphorylation by the catalytic subunits of phosphatases PP1 and PP2A” (Nature Communications, 2020)

What was measured:
[1] = tested on: GFP-14-3-3β and its binding proteins; assay: GFP-14-3-3β co-IP with LC-MS/MS label-free quantification, untreated versus PP1c-treated; set-up: species or system human; conditions: pairwise comparison PP1 vs untreated, 3 replicates each
GFP-14-3-3β = GFP-14-3-3β co-IP with LC-MS/MS, untreated GFP-14-3-3β versus GFP control (14-3-3 interactome); assay type: binding, human; conditions: 3 replicates each
[2] = student's t-test, LC-MS/MS label-free quantification
[3] = pairwise comparison untreated GFP-14-3-3β vs GFP, student's t-test, LC-MS/MS label-free quantification

Difference (log2), PP1 vs untreated [1, 2]	Difference (log2), PP1 vs untreated ([1]; log2 difference, label-free quantification)	Molecule	Difference (log2), untreated vs GFP (GFP-14-3-3β; [3])	Difference (log2), untreated vs GFP (GFP-14-3-3β; log2 difference, pairwise comparison untreated vs GFP, label-free quantification)
-3.667 log2		NCKAP1 (protein, UniProt Q9Y2A7 2-1128, looked up) Nck-associated protein 1: SRSVLQPSQQKLAEKLTILNDRGVGMLTRLYNIKKACGDPKAKPSYLIDKNLESAVKFIVRKFPAVETRNNNQQLAQLQKEKSEILKNLALYYFTFVDVMEFKDHVCELLNTIDVCQVFFDITVNFDLTKNYLDLIITYTTLMILLSRIEERKAIIGLYNYAHEMTHGASDREYPRLGQMIVDYENPLKKMMEEFVPHSKSLSDALISLQMVYPRRNLSADQWRNAQLLSLISAPSTMLNPAQSDTMPCEYLSLDAMEKWIIFGFILCHGILNTDATALNLWKLALQSSSCLSLFRDEVFHIHKAAEDLFVNIRGYNKRINDIRECKEAAVSHAGSMHRERRKFLRSALKELATVLSDQPGLLGPKALFVFMALSFARDEIIWLLRHADNMPKKSADDFIDKHIAELIFYMEELRAHVRKYGPVMQRYYVQYLSGFDAVVLNELVQNLSVCPEDESIIMSSFVNTMTSLSVKQVEDGEVFDFRGMRLDWFRLQAYTSVSKASLGLADHRELGKMMNTIIFHTKMVDSLVEMLVETSDLSIFCFYSRAFEKMFQQCLELPSQSRYSIAFPLLCTHFMSCTHELCPEERHHIGDRSLSLCNMFLDEMAKQARNLITDICTEQCTLSDQLLPKHCAKTISQAVNKKSKKQTGKKGEPEREKPGVESMRKNRLVVTNLDKLHTALSELCFSINYVPNMVVWEHTFTPREYLTSHLEIRFTKSIVGMTMYNQATQEIAKPSELLTSVRAYMTVLQSIENYVQIDITRVFNNVLLQQTQHLDSHGEPTITSLYTNWYLETLLRQVSNGHIAYFPAMKAFVNLPTENELTFNAEEYSDISEMRSLSELLGPYGMKFLSESLMWHISSQVAELKKLVVENVDVLTQMRTSFDKPDQMAALFKRLSSVDSVLKRMTIIGVILSFRSLAQEALRDVLSYHIPFLVSSIEDFKDHIPRETDMKVAMNVYELSSAAGLPCEIDPALVVALSSQKSENISPEEEYKIACLLMVFVAVSLPTLASNVMSQYSPAIEGHCNNIHCLAKAINQIAAALFTIHKGSIEDRLKEFLALASSSLLKIGQETDKTTTRNRESVYLLLDMIVQESPFLTMDLLESCFPYVLLRNAYHAVYKQSVTSSA	2.589 log2	
-4.214 log2		RAE1 (protein, UniProt P78406 1-368, looked up) mRNA export factor RAE1: MSLFGTTSGFGTSGTSMFGSATTDNHNPMKDIEVTSSPDDSIGCLSFSPPTLPGNFLIAGSWANDVRCWEVQDSGQTIPKAQQMHTGPVLDVCWSDDGSKVFTASCDKTAKMWDLSSNQAIQIAQHDAPVKTIHWIKAPNYSCVMTGSWDKTLKFWDTRSSNPMMVLQLPERCYCADVIYPMAVVATAERGLIVYQLENQPSEFRRIESPLKHQHRCVAIFKDKQNKPTGFALGSIEGRVAIHYINPPNPAKDNFTFKCHRSNGTNTSAPQDIYAVNGIAFHPVHGTLATVGSDGRFSFWDKDARTKLKTSEQLDQPISACCFNHNGNIFAYASSYDWSKGHEFYNPQKKNYIFLRNAAEELKPRNKK	3.4084 log2	
	1.521	TRAM1 (protein, UniProt Q15629 1-374, looked up) Translocating …: MAIRKKSTKSPPVLSHEFVLQNHADIVSCVAMVFLLGLMFEITAKASIIFVTLQYNVTLPATEEQATESVSLYYYGIKDLATVFFYMLVAIIIHAVIQEYMLDKINRRMHFSKTKHSKFNESGQLSAFYLFACVWGTFILISENYISDPTILWRAYPHNLMTFQMKFFYISQLAYWLHAFPELYFQKTKKEDIPRQLVYIGLYLFHIAGAYLLNLNHLGLVLLVLHYFVEFLFHISRLFYFSNEKYQKGFSLWAVLFVLGRLLTLILSVLTVGFGLARAENQKLDFSTGNFNVLAVRIAVLASICVTQAFMMWKFINFQLRRWREHSAFQAPAVKKKPTVTKGRSSKKGTENGVNGTLTSNVADSPRNKKEKSS		0.1201
-4.243 log2		EDC3 (protein, UniProt Q96F86 1-508, looked up) Enhancer of mRNA-decapping …: MATDWLGSIVSINCGDSLGVYQGRVSAVDQVSQTISLTRPFHNGVKCLVPEVTFRAGDITELKILEIPGPGDNQHFGDLHQTELGPSGAGCQVGINQNGTGKFVKKPASSSSAPQNIPKRTDVKSQDVAVSPQQQQCSKSYVDRHMESLSQSKSFRRRHNSWSSSSRHPNQATPKKSGLKNGQMKNKDDECFGDDIEEIPDTDFDFEGNLALFDKAAVFEEIDTYERRSGTRSRGIPNERPTRYRHDENILESEPIVYRRIIVPHNVSKEFCTDSGLVVPSISYELHKKLLSVAEKHGLTLERRLEMTGVCASQMALTLLGGPNRLNPKNVHQRPTVALLCGPHVKGAQGISCGRHLANHDVQVILFLPNFVKMLESITNELSLFSKTQGQQVSSLKDLPTSPVDLVINCLDCPENVFLRDQPWYKAAVAWANQNRAPVLSIDPPVHEVEQGIDAKWSLALGLPLPLGEHAGRIYLCDIGIPQQVFQEVGINYHSPFGCKFVIPLHSA	4.9273 log2	
-3.991 log2		USP8 (protein, UniProt P40818 1-1118, looked up) Ubiquitin carboxyl-terminal …: MPAVASVPKELYLSSSLKDLNKKTEVKPEKISTKSYVHSALKIFKTAEECRLDRDEERAYVLYMKYVTVYNLIKKRPDFKQQQDYFHSILGPGNIKKAVEEAERLSESLKLRYEEAEVRKKLEEKDRQEEAQRLQQKRQETGREDGGTLAKGSLENVLDSKDKTQKSNGEKNEKCETKEKGAITAKELYTMMTDKNISLIIMDARRMQDYQDSCILHSLSVPEEAISPGVTASWIEAHLPDDSKDTWKKRGNVEYVVLLDWFSSAKDLQIGTTLRSLKDALFKWESKTVLRNEPLVLEGGYENWLLCYPQYTTNAKVTPPPRRQNEEVSISLDFTYPSLEESIPSKPAAQTPPASIEVDENIELISGQNERMGPLNISTPVEPVAASKSDVSPIIQPVPSIKNVPQIDRTKKPAVKLPEEHRIKSESTNHEQQSPQSGKVIPDRSTKPVVFSPTLMLTDEEKARIHAETALLMEKNKQEKELRERQQEEQKEKLRKEEQEQKAKKKQEAEENEITEKQQKAKEEMEKKESEQAKKEDKETSAKRGKEITGVKRQSKSEHETSDAKKSVEDRGKRCPTPEIQKKSTGDVPHTSVTGDSGSGKPFKIKGQPESGILRTGTFREDTDDTERNKAQREPLTRARSEEMGRIVPGLPSGWAKFLDPITGTFRYYHSPTNTVHMYPPEMAPSSAPPSTPPTHKAKPQIPAERDREPSKLKRSYSSPDITQAIQEEEKRKPTVTPTVNRENKPTCYPKAEISRLSASQIRNLNPVFGGSGPALTGLRNLGNTCYMNSILQCLCNAPHLADYFNRNCYQDDINRSNLLGHKGEVAEEFGIIMKALWTGQYRYISPKDFKITIGKINDQFAGYSQQDSQELLLFLMDGLHEDLNKADNRKRYKEENNDHLDDFKAAEHAWQKHKQLNESIIVALFQGQFKSTVQCLTCHKKSRTFEAFMYLSLPLASTSKCTLQDCLRLFSKEEKLTDNNRFYCSHCRARRDSLKKIEIWKLPPVLLVHLKRFSYDGRWKQKLQTSVDFPLENLDLSQYVIGPKNNLKKYNLFSVSNHYGGLDGGHYTAYCKNAARQRWFKFDDHEVSDISVSSVKSSAAYILFYTSLGPRVTDVAT	6.726 log2	
-4.246 log2		GLCCI1 (protein, UniProt Q86VQ1 1-547, looked up) Glucocorticoid-induced …: MSTASSSSSSSSSQTPHPPSQRMRRSAAGSPPAVAAAGSGNGAGGGGGVGCAPAAGAGRLLQPIRATVPYQLLRGSQHSPTRPPVAAAAASLGSLPGPGAARGPSPSSPTPPAAAAPAEQAPRAKGRPRRSPESHRRSSSPERRSPGSPVCRADKAKSQQVRTSSTIRRTSSLDTITGPYLTGQWPRDPHVHYPSCMKDKATQTPSCWAEEGAEKRSHQRSASWGSADQLKEQIAKLRQQLQRSKQSSRHSKEKDRQSPLHGNHITISHTQATGSRSVPMPLSNISVPKSSVSRVPCNVEGISPELEKVFIKENNGKEEVSKPLDIPDGRRAPLPAHYRSSSTRSIDTQTPSVQERSSSCSSHSPCVSPFCPPESQDGSPCSTEDLLYDRDKDSGSSSPLPKYASSPKPNNSYMFKREPPEGCERVKVFEEMASRQPISAPLFSCPDKNKVNFIPTGSAFCPVKLLGPLLPASDLMLKNSPNSGQSSALATLTVEQLSSRVSFTSLSDDTSTAGSMEASVQQPSQQQQLLQELQGEDHISAQNYVII	4.69 log2	
-4.365 log2		PAK4 (protein, UniProt O96013 1-591, looked up) Serine/threonine-protein …: MFGKRKKRVEISAPSNFEHRVHTGFDQHEQKFTGLPRQWQSLIEESARRPKPLVDPACITSIQPGAPKTIVRGSKGAKDGALTLLLDEFENMSVTRSNSLRRDSPPPPARARQENGMPEEPATTARGGPGKAGSRGRFAGHSEAGGGSGDRRRAGPEKRPKSSREGSGGPQESSRDKRPLSGPDVGTPQPAGLASGAKLAAGRPFNTYPRADTDHPSRGAQGEPHDVAPNGPSAGGLAIPQSSSSSSRPPTRARGAPSPGVLGPHASEPQLAPPACTPAAPAVPGPPGPRSPQREPQRVSHEQFRAALQLVVDPGDPRSYLDNFIKIGEGSTGIVCIATVRSSGKLVAVKKMDLRKQQRRELLFNEVVIMRDYQHENVVEMYNSYLVGDELWVVMEFLEGGALTDIVTHTRMNEEQIAAVCLAVLQALSVLHAQGVIHRDIKSDSILLTHDGRVKLSDFGFCAQVSKEVPRRKSLVGTPYWMAPELISRLPYGPEVDIWSLGIMVIEMVDGEPPYFNEPPLKAMKMIRDNLPPRLKNLHKVSPSLKGFLDRLLVRDPAQRATAAELLKHPFLAKAGPPASIVPLMRQNRTR	5.767 log2	
-4.306 log2		EIF4E2 (protein, UniProt O60573 1-245, looked up) Eukaryotic translation …: MNNKFDALKDDDSGDHDQNEENSTQKDGEKEKTERDKNQSSSKRKAVVPGPAEHPLQYNYTFWYSRRTPGRPTSSQSYEQNIKQIGTFASVEQFWRFYSHMVRPGDLTGHSDFHLFKEGIKPMWEDDANKNGGKWIIRLRKGLASRCWENLILAMLGEQFMVGEEICGAVVSVRFQEDIISIWNKTASDQATTARIRDTLRRVLNLPPNTIMEYKTHTDSIKMPGRLGPQRLLFQNLWKPRLNVP	3.4457 log2	
